Series [1] deals with T1, PKR dsRBD (p20) (UniProt P19525 1-184). Description: nuclease footprinting.
Series [2] concerns the target T1, PKR dsRBD (p20). Put plainly: EMSA. (A gel shift assay detects complexes by their altered migration in electrophoresis.)

T1 sequence (P19525 1-184): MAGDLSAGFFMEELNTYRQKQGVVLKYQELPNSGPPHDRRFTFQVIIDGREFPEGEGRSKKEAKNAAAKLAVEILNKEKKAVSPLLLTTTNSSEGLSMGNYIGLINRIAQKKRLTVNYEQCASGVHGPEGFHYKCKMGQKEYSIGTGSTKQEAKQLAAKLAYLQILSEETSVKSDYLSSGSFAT

B1: HCV IRES domain II (39-119) (structured_RNA)
RNA: GGACUCCCCUGUGAGGAACUACUGUCUUCACGCAGAAAGCGUCUAGCCAUGGCGUUAGUAUGAGUGUCGUGCAGCCUCCAGGA
As to B1, the binding result with PKR dsRBD (p20) [1] is “binds”.

B2: HCV IRES domains III-IV (131-388) (structured_RNA)
RNA: GGGAGAGCCAUAGUGGUCUGCGGAACCGGUGAGUACACCGGAAUUGCCAGGACGACCGGGUCCUUUCUUGGAUCAACCCGCUCAAUGCCUGGAGAUUUGGGCGUGCCCCCGCGAGACUGCUAGCCGAGUAGUGUUGGGUCGCGAAAGGCCUUGUGGUACUGCCUGAUAGGGUGCUUGCGAGUGCCCCGGGAGGUCUCGUAGACCGUGCACCAUGAGCACGAAUCCUAAACCUCAAAGAAAAACCAAAGGGCGCGCCGC
For the molecule B2, in the series with PKR dsRBD (p20) [2], the binding result is “binds”.

Source of the values: paper PMC2902579.
